Measured values reported in patent US20110105394A1 (Novo Nordisk, published 2011).
*1 amine or outer side, *2 acyl side, *3 side chain or, on linkers, in order; H or OH if unused. Bridges are numbered along the chain shown (N, C = ends). Where no end group is shown, it is not given here. The star is where a group is joined. X2 = (S)‑4‑Carboxy‑4‑(19-carboxynonadecanoylamino)butyryl, O=C(O)CCCCCCCCCCCCCCCCCCC(=O)N[C@@H](CCC(=O)*)C(=O)O; X1 = (S)‑4‑Carboxy‑4‑(17-carboxyheptadecanoylamino)butyryl, O=C(O)CCCCCCCCCCCCCCCCC(=O)N[C@@H](CCC(=O)*)C(=O)O; C20 diacid = O=C(O)CCCCCCCCCCCCCCCCCCC(=O)*; γGlu = O=C(O)[C@H](CCC(=O)[*:2])N[*:1]; AEEA = NCCOCCOCC(=O)O

B1: N-alpha-[(S)-4-Carboxy-4-(19-carboxynonadecanoylamino)butyryl]-[Ser17]-pramlintide (2-37) (peptide)
peptide: {C20 diacid-γGlu}-CNTATCATQRLANFLSHSSNNFGPILPPTNVGSNTY-NH2
modifications: disulfide 1-6
SMILES: CC[C@H](C)[C@H](NC(=O)[C@@H]1CCCN1C(=O)CNC(=O)[C@H](Cc1ccccc1)NC(=O)[C@H](CC(N)=O)NC(=O)[C@H](CC(N)=O)NC(=O)[C@H](CO)NC(=O)[C@H](CO)NC(=O)[C@H](Cc1c[nH]cn1)NC(=O)[C@H](CO)NC(=O)[C@H](CC(C)C)NC(=O)[C@H](Cc1ccccc1)NC(=O)[C@H](CC(N)=O)NC(=O)[C@H](C)NC(=O)[C@H](CC(C)C)NC(=O)[C@H](CCCNC(=N)N)NC(=O)[C@H](CCC(N)=O)NC(=O)[C@@H](NC(=O)[C@H](C)NC(=O)[C@@H]1CSSC[C@H](NC(=O)CC[C@H](NC(=O)CCCCCCCCCCCCCCCCCCC(=O)O)C(=O)O)C(=O)N[C@@H](CC(N)=O)C(=O)N[C@@H]([C@@H](C)O)C(=O)N[C@@H](C)C(=O)N[C@@H]([C@@H](C)O)C(=O)N1)[C@@H](C)O)C(=O)N[C@@H](CC(C)C)C(=O)N1CCC[C@H]1C(=O)N1CCC[C@H]1C(=O)N[C@H](C(=O)N[C@@H](CC(N)=O)C(=O)N[C@H](C(=O)NCC(=O)N[C@@H](CO)C(=O)N[C@@H](CC(N)=O)C(=O)N[C@H](C(=O)N[C@@H](Cc1ccc(O)cc1)C(N)=O)[C@@H](C)O)C(C)C)[C@@H](C)O
B2: N-alpha-[(S)-4-Carboxy-4-(19-carboxynonadecanoylamino)butyryl]-[Ala17]-pramlintide (2-37) (peptide)
peptide: CNTATCATQRLANFLAHSSNNFGPILPPTNVGSNTY-NH2
modifications: disulfide 1-6; not fully specified (N-terminus); printed as N-alpha-[(S)-4-Carboxy-4-(19-carboxynonadecanoylamino)butyryl]-[Ala17]-pramlintide (2-37)
B3: N-alpha-[(S)-4-Carboxy-4-(19-carboxynonadecanoylamino)butyryl]-[Gly17]-pramlintide (2-37) (peptide)
peptide: {C20 diacid-γGlu}-CNTATCATQRLANFLGHSSNNFGPILPPTNVGSNTY-NH2
modifications: disulfide 1-6
SMILES: CC[C@H](C)[C@H](NC(=O)[C@@H]1CCCN1C(=O)CNC(=O)[C@H](Cc1ccccc1)NC(=O)[C@H](CC(N)=O)NC(=O)[C@H](CC(N)=O)NC(=O)[C@H](CO)NC(=O)[C@H](CO)NC(=O)[C@H](Cc1c[nH]cn1)NC(=O)CNC(=O)[C@H](CC(C)C)NC(=O)[C@H](Cc1ccccc1)NC(=O)[C@H](CC(N)=O)NC(=O)[C@H](C)NC(=O)[C@H](CC(C)C)NC(=O)[C@H](CCCNC(=N)N)NC(=O)[C@H](CCC(N)=O)NC(=O)[C@@H](NC(=O)[C@H](C)NC(=O)[C@@H]1CSSC[C@H](NC(=O)CC[C@H](NC(=O)CCCCCCCCCCCCCCCCCCC(=O)O)C(=O)O)C(=O)N[C@@H](CC(N)=O)C(=O)N[C@@H]([C@@H](C)O)C(=O)N[C@@H](C)C(=O)N[C@@H]([C@@H](C)O)C(=O)N1)[C@@H](C)O)C(=O)N[C@@H](CC(C)C)C(=O)N1CCC[C@H]1C(=O)N1CCC[C@H]1C(=O)N[C@H](C(=O)N[C@@H](CC(N)=O)C(=O)N[C@H](C(=O)NCC(=O)N[C@@H](CO)C(=O)N[C@@H](CC(N)=O)C(=O)N[C@H](C(=O)N[C@@H](Cc1ccc(O)cc1)C(N)=O)[C@@H](C)O)C(C)C)[C@@H](C)O
B4: N-alpha-[(S)-4-Carboxy-4-(19-carboxynonadecanoylamino)butyryl]-[Arg17]-pramlintide (2-37) (peptide)
peptide: {C20 diacid-γGlu}-CNTATCATQRLANFLRHSSNNFGPILPPTNVGSNTY-NH2
modifications: disulfide 1-6
SMILES: CC[C@H](C)[C@H](NC(=O)[C@@H]1CCCN1C(=O)CNC(=O)[C@H](Cc1ccccc1)NC(=O)[C@H](CC(N)=O)NC(=O)[C@H](CC(N)=O)NC(=O)[C@H](CO)NC(=O)[C@H](CO)NC(=O)[C@H](Cc1c[nH]cn1)NC(=O)[C@H](CCCNC(=N)N)NC(=O)[C@H](CC(C)C)NC(=O)[C@H](Cc1ccccc1)NC(=O)[C@H](CC(N)=O)NC(=O)[C@H](C)NC(=O)[C@H](CC(C)C)NC(=O)[C@H](CCCNC(=N)N)NC(=O)[C@H](CCC(N)=O)NC(=O)[C@@H](NC(=O)[C@H](C)NC(=O)[C@@H]1CSSC[C@H](NC(=O)CC[C@H](NC(=O)CCCCCCCCCCCCCCCCCCC(=O)O)C(=O)O)C(=O)N[C@@H](CC(N)=O)C(=O)N[C@@H]([C@@H](C)O)C(=O)N[C@@H](C)C(=O)N[C@@H]([C@@H](C)O)C(=O)N1)[C@@H](C)O)C(=O)N[C@@H](CC(C)C)C(=O)N1CCC[C@H]1C(=O)N1CCC[C@H]1C(=O)N[C@H](C(=O)N[C@@H](CC(N)=O)C(=O)N[C@H](C(=O)NCC(=O)N[C@@H](CO)C(=O)N[C@@H](CC(N)=O)C(=O)N[C@H](C(=O)N[C@@H](Cc1ccc(O)cc1)C(N)=O)[C@@H](C)O)C(C)C)[C@@H](C)O
B5: N-alpha-[(S)-4-Carboxy-4-(19-carboxynonadecanoylamino)butyryl]-[Pro17]-pramlintide (2-37) (peptide)
peptide: {C20 diacid-γGlu}-CNTATCATQRLANFLPHSSNNFGPILPPTNVGSNTY-NH2
modifications: disulfide 1-6
SMILES: CC[C@H](C)[C@H](NC(=O)[C@@H]1CCCN1C(=O)CNC(=O)[C@H](Cc1ccccc1)NC(=O)[C@H](CC(N)=O)NC(=O)[C@H](CC(N)=O)NC(=O)[C@H](CO)NC(=O)[C@H](CO)NC(=O)[C@H](Cc1c[nH]cn1)NC(=O)[C@@H]1CCCN1C(=O)[C@H](CC(C)C)NC(=O)[C@H](Cc1ccccc1)NC(=O)[C@H](CC(N)=O)NC(=O)[C@H](C)NC(=O)[C@H](CC(C)C)NC(=O)[C@H](CCCNC(=N)N)NC(=O)[C@H](CCC(N)=O)NC(=O)[C@@H](NC(=O)[C@H](C)NC(=O)[C@@H]1CSSC[C@H](NC(=O)CC[C@H](NC(=O)CCCCCCCCCCCCCCCCCCC(=O)O)C(=O)O)C(=O)N[C@@H](CC(N)=O)C(=O)N[C@@H]([C@@H](C)O)C(=O)N[C@@H](C)C(=O)N[C@@H]([C@@H](C)O)C(=O)N1)[C@@H](C)O)C(=O)N[C@@H](CC(C)C)C(=O)N1CCC[C@H]1C(=O)N1CCC[C@H]1C(=O)N[C@H](C(=O)N[C@@H](CC(N)=O)C(=O)N[C@H](C(=O)NCC(=O)N[C@@H](CO)C(=O)N[C@@H](CC(N)=O)C(=O)N[C@H](C(=O)N[C@@H](Cc1ccc(O)cc1)C(N)=O)[C@@H](C)O)C(C)C)[C@@H](C)O
B6: N-alpha-[(S)-4-Carboxy-4-(19-carboxynonadecanoylamino)butyryl]-Arg-[His17]-pramlintide (peptide)
peptide: X2-RKCNTATCATQRLANFLHHSSNNFGPILPPTNVGSNTY-NH2
modifications: disulfide 3-8
SMILES: CC[C@H](C)[C@H](NC(=O)[C@@H]1CCCN1C(=O)CNC(=O)[C@H](Cc1ccccc1)NC(=O)[C@H](CC(N)=O)NC(=O)[C@H](CC(N)=O)NC(=O)[C@H](CO)NC(=O)[C@H](CO)NC(=O)[C@H](Cc1c[nH]cn1)NC(=O)[C@H](Cc1c[nH]cn1)NC(=O)[C@H](CC(C)C)NC(=O)[C@H](Cc1ccccc1)NC(=O)[C@H](CC(N)=O)NC(=O)[C@H](C)NC(=O)[C@H](CC(C)C)NC(=O)[C@H](CCCNC(=N)N)NC(=O)[C@H](CCC(N)=O)NC(=O)[C@@H](NC(=O)[C@H](C)NC(=O)[C@@H]1CSSC[C@H](NC(=O)[C@H](CCCCN)NC(=O)[C@H](CCCNC(=N)N)NC(=O)CC[C@H](NC(=O)CCCCCCCCCCCCCCCCCCC(=O)O)C(=O)O)C(=O)N[C@@H](CC(N)=O)C(=O)N[C@@H]([C@@H](C)O)C(=O)N[C@@H](C)C(=O)N[C@@H]([C@@H](C)O)C(=O)N1)[C@@H](C)O)C(=O)N[C@@H](CC(C)C)C(=O)N1CCC[C@H]1C(=O)N1CCC[C@H]1C(=O)N[C@H](C(=O)N[C@@H](CC(N)=O)C(=O)N[C@H](C(=O)NCC(=O)N[C@@H](CO)C(=O)N[C@@H](CC(N)=O)C(=O)N[C@H](C(=O)N[C@@H](Cc1ccc(O)cc1)C(N)=O)[C@@H](C)O)C(C)C)[C@@H](C)O
B7: N-alpha-[(S)-4-Carboxy-4-(19-carboxynonadecanoylamino)butyryl]-Arg-[Gly17]-pramlintide (peptide)
peptide: X2-RKCNTATCATQRLANFLGHSSNNFGPILPPTNVGSNTY-NH2
modifications: disulfide 3-8
SMILES: CC[C@H](C)[C@H](NC(=O)[C@@H]1CCCN1C(=O)CNC(=O)[C@H](Cc1ccccc1)NC(=O)[C@H](CC(N)=O)NC(=O)[C@H](CC(N)=O)NC(=O)[C@H](CO)NC(=O)[C@H](CO)NC(=O)[C@H](Cc1c[nH]cn1)NC(=O)CNC(=O)[C@H](CC(C)C)NC(=O)[C@H](Cc1ccccc1)NC(=O)[C@H](CC(N)=O)NC(=O)[C@H](C)NC(=O)[C@H](CC(C)C)NC(=O)[C@H](CCCNC(=N)N)NC(=O)[C@H](CCC(N)=O)NC(=O)[C@@H](NC(=O)[C@H](C)NC(=O)[C@@H]1CSSC[C@H](NC(=O)[C@H](CCCCN)NC(=O)[C@H](CCCNC(=N)N)NC(=O)CC[C@H](NC(=O)CCCCCCCCCCCCCCCCCCC(=O)O)C(=O)O)C(=O)N[C@@H](CC(N)=O)C(=O)N[C@@H]([C@@H](C)O)C(=O)N[C@@H](C)C(=O)N[C@@H]([C@@H](C)O)C(=O)N1)[C@@H](C)O)C(=O)N[C@@H](CC(C)C)C(=O)N1CCC[C@H]1C(=O)N1CCC[C@H]1C(=O)N[C@H](C(=O)N[C@@H](CC(N)=O)C(=O)N[C@H](C(=O)NCC(=O)N[C@@H](CO)C(=O)N[C@@H](CC(N)=O)C(=O)N[C@H](C(=O)N[C@@H](Cc1ccc(O)cc1)C(N)=O)[C@@H](C)O)C(C)C)[C@@H](C)O

Target: T1, Amylin 3(a) receptor (human calcitonin receptor (CTa) with RAMP-3) (human, UniProt P30988 25-474; O60896 24-148, limits assumed)
T1 sequence (looked up) 1: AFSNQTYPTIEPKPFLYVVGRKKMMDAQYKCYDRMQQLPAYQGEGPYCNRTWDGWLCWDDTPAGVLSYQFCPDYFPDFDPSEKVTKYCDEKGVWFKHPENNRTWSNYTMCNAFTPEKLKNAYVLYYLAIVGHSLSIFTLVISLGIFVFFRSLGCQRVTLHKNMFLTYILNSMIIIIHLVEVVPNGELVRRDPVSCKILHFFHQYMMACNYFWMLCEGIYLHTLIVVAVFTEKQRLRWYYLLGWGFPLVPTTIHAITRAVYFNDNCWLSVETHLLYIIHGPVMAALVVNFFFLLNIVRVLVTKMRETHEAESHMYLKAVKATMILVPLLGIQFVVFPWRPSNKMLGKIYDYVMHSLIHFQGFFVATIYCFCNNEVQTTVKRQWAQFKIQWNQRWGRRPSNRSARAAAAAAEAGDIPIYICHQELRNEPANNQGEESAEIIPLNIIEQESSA
T1 sequence (looked up) 2: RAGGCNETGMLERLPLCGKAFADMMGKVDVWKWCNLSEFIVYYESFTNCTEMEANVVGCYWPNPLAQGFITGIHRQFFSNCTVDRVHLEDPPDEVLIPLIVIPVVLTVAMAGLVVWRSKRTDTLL
Experiment: cell-based or functional assay

Binder | Potency Luciferase [nM]
X1-CNTATCATQRLANFLHHSSNNFGPILPPTNVGSNTY-NH2 (disulfide 1-6) [N-alpha-[(S)-4-Carboxy-4-(17-carboxyheptadecanoylamino)butyryl]-[His17]-pramlintide (2-37)] | 0.08
B1 | 0.1
B2 | 0.1
B3 | 0.4
B4 | 0.2
B5 | 8
{C20 diacid-γGlu-AEEA}-CNTATCATQRLANFLHHSSNNFGPILPPTNVGSNTY-NH2 (disulfide 1-6) | 0.1
B6 | 0.08
B7 | 0.1
